Results reported in article PMC5809743.

Molecular target: FMDV protomer (VP0, VP3 and VP1) from full-length capsid precursor P1-2A processed by 3C protease (foot-and-mouth disease virus, strain O1 Manisa)
Assay: sucrose density gradient sedimentation

“FMDV protomer (VP0, VP3 and VP1) from full-length capsid precursor P1-2A processed by 3C protease (complex)” showed a reduction in pentamer formation with 17-DMAG, against no drug of 50% and a stoichiometry N of 5.
